Measured values as given in patent US20070037177A1, “CYP19A1 polymorphisms” (priority 2005, published 2007).
Numbering of substitutions follows the chain as printed. Blank lines part the entries; values can stand above or below the molecule they belong to.

Key:
[1] = test system: Recombinant Human CYP19A1 Allozymes; assay: CYP19A1 enzyme activity of recombinant allozymes (3H2O release from [1β3H]androst-4-ene-3,17-dione, COS-1 microsomes); format: biochemical; conditions: 20 nM androstenedione substrate, corrected for transfection efficiency, 6 independent transfections
[2] = test system: Recombinant Human CYP19A1 Allozymes; assay: Substrate kinetics: apparent Km of recombinant CYP19A1 allozymes with androstenedione; format: biochemical; conditions: androstenedione as substrate; COS-1 microsomes

% WT activity [1]: 72%
B1: Cys264: "a CYP19A1 polypeptide (Arg264Cys) having a cysteine at amino acid residue 264" (protein, UniProt P11511 1-503, looked up, variant R264C)
Aromatase: MVLEMLNPIHYNITSIVPEAMPAATMPVLLLTGLFLLVWNYEGTSSIPGPGYCMGIGPLISHGRFLWMGIGSACNYYNRVYGEFMRVWISGEETLIISKSSSMFHIMKHNHYSSRFGSKLGLQCIGMHEKGIIFNNNPELWKTTRPFFMKALSGPGLVRMVTVCAESLKTHLDRLEEVTNESGYVDVLTLLRRVMLDTSNTLFLRIPLDESAIVVKIQGYFDAWQALLIKPDIFFKISWLYKKYEKSVKDLKDAIEVLIAEKRCRISTEEKLEECMDFATELILAEKRGDLTRENVNQCILEMLIAAPDTMSVSLFFMLFLIAKHPNVEEAIIKEIQTVIGERDIKIDDIQKLKVMENFIYESMRYQPVVDLVMRKALEDDVIDGYPVKKGTNIILNIGRMHRLEFFPKPNEFTLENFAKNVPYRYFQPFGFGPRGCAGKYIAMVMMKAILVTLLRRFHVKTLQGQCVESIQKIHDLSLHPDETKNMLEMIFTPRNSDRCLEH

B2: Thr364: "a CYP19A1 polypeptide having a threonine at amino acid residue 364. This polypeptide (Met(364)Thr) would be considered an allozyme" (protein, UniProt P11511 1-503, looked up, variant M364T)
Aromatase: B1 Aromatase with C264R, M364T
Apparent Km [2]: elevated
